From patent CN116930475A come the findings set out here.

In assay [1] the target is 2339-CAR (CD8信号肽-2339(anti-MSLN)-CD8hinge-CD28TM-CD28IC-CD3z), expressed on T cells of MSLN_CAR-T products (batch BZDS202101001 for patient S0106; same sequence for S0304). As to the kind of experiment: flow cytometry, PE-mesothelin staining of CAR-T product (table for S0304), no serum.
For assay [2] the target is unchanged. The assay is described as follows: flow cytometry, PE-mesothelin staining of S0106 CAR-T product, no serum.
Assay [3] deals with 1444-CAR (CD8信号肽-(anti-MSLN)-CD8 hinge-CD28 TM-CD28IC-CD3z), expressed on the T cells of patient S0105's MSLN_CAR-T product, batch BZDS202012001. The assay is described as follows: flow cytometry, PE-mesothelin staining of S0105 CAR-T product, no serum.
Sequence of 1444-CAR (CD8信号肽-(anti-MSLN)-CD8 hinge-CD28 TM-CD28IC-CD3z), expressed on the T cells of patient S0105's MSLN_CAR-T product, batch BZDS202012001 (chain, as listed by the source): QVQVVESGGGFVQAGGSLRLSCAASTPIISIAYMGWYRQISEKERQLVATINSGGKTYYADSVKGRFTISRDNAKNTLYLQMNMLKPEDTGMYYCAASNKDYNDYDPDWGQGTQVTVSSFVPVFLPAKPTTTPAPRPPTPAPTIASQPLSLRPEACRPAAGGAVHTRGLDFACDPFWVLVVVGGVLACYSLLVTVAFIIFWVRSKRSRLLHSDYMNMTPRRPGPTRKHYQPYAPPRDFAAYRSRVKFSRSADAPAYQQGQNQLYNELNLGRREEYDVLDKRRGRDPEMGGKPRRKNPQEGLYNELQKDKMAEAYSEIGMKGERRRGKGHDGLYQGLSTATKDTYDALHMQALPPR

Sequence of 2339-CAR (CD8信号肽-2339(anti-MSLN)-CD8hinge-CD28TM-CD28IC-CD3z), expressed on T cells of MSLN_CAR-T products (batch BZDS202101001 for patient S0106; same sequence for S0304) (chain, as listed by the source limits assumed): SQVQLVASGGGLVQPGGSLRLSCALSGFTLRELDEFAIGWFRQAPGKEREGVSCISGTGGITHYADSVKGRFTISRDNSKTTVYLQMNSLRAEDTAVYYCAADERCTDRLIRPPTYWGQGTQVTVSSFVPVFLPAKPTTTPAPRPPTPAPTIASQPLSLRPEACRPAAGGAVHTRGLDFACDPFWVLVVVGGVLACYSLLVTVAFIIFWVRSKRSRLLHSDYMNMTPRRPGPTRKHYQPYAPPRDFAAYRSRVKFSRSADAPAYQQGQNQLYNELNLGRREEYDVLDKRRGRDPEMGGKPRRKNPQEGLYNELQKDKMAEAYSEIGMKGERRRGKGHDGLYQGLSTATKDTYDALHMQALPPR

For “PE荧光标记的间皮素 (PE-labelled mesothelin, MSLN) (from UniProt Q13421 296-580) (ligand)”, the 阳性率 (percent of T cells stained by labelled mesothelin) came to 96.8% in assay [1], 96.8% in assay [2] and 32.7% in assay [3].
